Results reported in the nanobody polyreactivity screen of Harvey et al. (2022).

Assay: yeast display, Sf9 membrane polyspecificity reagent, FACS + sequencing; frameworks hold sequencing errors
Procedure, shortened: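 Galactose induction of a Saccharomyces cerevisiae BJ5465 synthetic nanobody display library ran 36–48 hours. The cells were then stained for 1 hour at 4 °C with 10% biotinylated, detergent-solubilized Sf9 membrane reagent, pulled down on streptavidin microbeads and FACS-sorted into low and high (top ~1%) gates on expression and reagent-binding fluorescence. Labels for polyreactivity follow the gate of origin.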

Sequence | polyreactivity (PSR sort gate)
QVQVVESGGGLVQAGGSIRLSCAASGSILSRYAMGWYRQAPGKERELFAAITSSGGTTYYADSVKGRFTISRDTAKNTVYLQMNSLKPEDTAVYYCADHGSRYGYGDFYYWGQGTQVTVSS | high polyreactivity
QVQLVESGGGLVQAGGSLRLSCAASGRTFGPYAMGWSRQAPGKERELVAAITWSGGSTYYADSVKGRFTISRDNAKNTVYLQMNSLKPEDTAVYYCAAKFSIWTLKKYYYWGQGTQVTVSS | high polyreactivity
QVQLVETGGGLVQAGGSLRLRCAASGSIFVPYTMGWYRQAPGKERELVASISYSGGTTYYADSEKGRFTISRDNAKNTVYLQMNSLKPEDTAVYYCAADWDESYSYRRYRHYDYWGQGTQLTVSS | low polyreactivity
QVQLVESGGGLVQAGGSLRLSCAASGRIFDVNDMGCYRQAPGKERELVAAITYSGTDTYYADSVKGRITISRDNAKNTVYLQMNSLKPEDTAVYYCAAEFTGWEYIGRDYWGQGTQVTVSS | low polyreactivity
QVQLVESGGGLVQAGGSLRLSCAASGSTFQYNAMGWYRQAPGKERELVAAISTGTSTYYADSVKGRFTISRDNAKNTVYLQMNSLKPEDTAVYYCAAEYWGDYTEYNYWGQGTQVTVSS | high polyreactivity
QVQLVESGGGLVQAGGSLRLSCAASGSIFLIYAMGWYRQAPGKERELVATINRGDNTYYADSVKGRFTISRDNAKNTVYLQMNSLKPEDTAVYYCAADVPWGWWDSDFSDNYYWGQGTQVTVSS | low polyreactivity
QVQLVESGGGLVQAGGSLRLSCAASGYIFPYYAMGWYRQAPGKERELVAAISRSGGGTYYADSVKGRFTISRDNAKNTVYLQMNSLKPEDTAVYYCNRRSGHVHEYDYWGQGTQVTVSS | low polyreactivity
QVQLVESGGGLVQAGGSLRLSCADSGFTFGVYVMGWYRQAPAKERELVAAISRSGGSTYYADSVKGRFTISRDKAKNTVYLQMNCLKPEETAVYYCNADRLVSYRAGEYDYWGQGTQVTVSS | high polyreactivity
QVQLVESGGGLVQAGGSLRLSCAASGSTFRWYAMGWYRQAPGKERELVASISGSGGSTYYADSVKGRFTISRDNAKNTVYLQMNSLKPEDTAVYYCNKRYFTYLGEHTVGYWGQGTQVTVSS | high polyreactivity
QVQLVESGGGLVQAGGSLRLSCAASGRTFSSYAMGWYRQAPGKERELVAAISWSGGRTYYADSVKGRFTISRDNAKNTVYLQMNSLKPEDTAVYYCAAEGDKRKYWYLYDYWGQGTQVTVSS | high polyreactivity
QVKLVESGGGLVQAGGSLRLSCAASVRIFALNTMGWYREAPGKERELDAAISYRGGSTYYADSVKGRFTISRDNAKTTVYLQMNSLKPEDTAVYYCAARCYSYSRRYGYDYWGQGTQVTVSS | high polyreactivity
QVQLVESGGGLVQAGGSLRLSCAASGYIFGWNAMGWYRQAPGKERELVAAISSSGGNTYYADSVKGRFTISRDNAKNTVYLQMNSLKPEDTAVYYCARSYPYRYDYWGQGTQVTVSS | low polyreactivity
QVQLEESGGGLVQAGGSLSLSSAASGSIFRNYAKGWYRQAPGKERELVAAISVRGGSTYYADSVKGRFTISRDNAKNTVYLQMNSLKPEDTAVYYCNARTYYPVYYRDGGYWGQGTQVTVSS | high polyreactivity
QVQLVESGGGLVQAGGSLRLSCAASGLIFTPYAMGWYRQAPGKERELVAAINYGGSRTYYADSVKGRFTISRDNAKNTVYLQMNSLKPEDTAVYYCNVVKRSFRYDYWGEGTQVTVSS | high polyreactivity
QVQLVESGGGLVQGGGSLRLSCDASGLTFPSNAMRWYRQATAKERELVASINRRGTSTFYADSVKGRFTISRDNAKNTFYLQMNSMKPEDTAVYYCNAYEGAAIRSTGRYDYWGHGTQVTVSS | low polyreactivity
QVQLVESGGGLVQAGGSLRLSCAASGRIIYGNALGWYRQAPGKERELVAAITSGGSTNYADSVKGRFPISRDNAKNTVYLQMNSLIPEDTAVYYCNAVVYSAYRYEYWGQGTQVTVSS | low polyreactivity
QVQLVESGGGLVQAGGSLRLSCAASGRIFFVNTMGWYRQAPVKERELVATISCSGGSTYYADSVKGRFTISRDNAKNTVYLQMNTLKPEDTAVYYCNRSLTGYDELGYPVPYTYDYWGQGTQVTVSS | low polyreactivity
QVQLVESGGGLVQAGGSLRLSCAASGFTFGHYAMGWYRQAPGKERELVAAISKSGTRTYYADSVKGRFTISRDNAKNTVYLLMNSLKPEDTAVYYCATTAYNGYDYWGQGTQVTVSS | high polyreactivity
QVQLVESGGGLVQAGGSLRLSCAASGSTSYYYAMGWYRQAPGKERELVAAISYSGGRTYYADSVKGRFTISRDNAKNTVYLQMNSLKPEDTAVYYCAKTFRGQPYLRYRYYYWGQGTQVTVSS | high polyreactivity
QVQLVESGGGLVQAGGSLRLSCAASGSIFAYNDMGWYRQAPGKERELVAAIRNGGRTNYADSVKGRFTISRDNAKNTVYLQMNSLKPEDTAVDYWAALNYYGSDYWGQGTQVTVSS | high polyreactivity
QVQLVESGGGLVQAGGSLRLSCAASGSIFGKNVMGWYRQAPGKDRELVAAITSGASTYYADSVKGRFTISRDNAKNTDYLQMNSLKPDDTAVYYCAARRWRKYYSGYNYWGHGTQVTVSS | high polyreactivity
QDQLVESGGGLVQAGCSLRLSCAASGLIFGWYAMGWYRQAPGKERELVASISRSGGSTYYADSVKGRFTISRDNAKNTVYLQMNSLITEDTAVYYCAALNYVFRLTYGYDYWGQGTQVTVSS | high polyreactivity

Sequence | polyreactivity (PSR sort gate)
QVQLVETGGGLVQAGGSLRLSCAASGSIFDGYAMGWYRQAPGKERDFVASIRFSTARTYYADSVKGRFTISRDNAKNTVYLQMNSLKPEDTAVYYCNAPQGFVWRYSSWGPYDYWGQGTQVTVSS | high polyreactivity
QVQLVESGGGLVQAGGSLRLTCAASRIIFRKYAMGWYRQAPGKERELVAAISSSAGSTYYADSVKGRFTISRDNAKNTVYLQMNSLKPEDTAVYYCAADRHYTRYDYWGQGTQVTVSS | high polyreactivity
QVQLVESGGGLVQAGGSLRLSCAASGSTFDSNAMGWYRQAPGKERELVAPISGSASRTYYADSVKGRFTISRDNAKNTVYLQMNSLKPEDTAVYYCAAVRYHMYYWGQGTQVTVSS | high polyreactivity
QVQLVESVGGLVQAGGSLRLSCDASGRIFRRYAMGWYRQAPGKERELVAAISSSGDSTYYADSVKGRFTISRDNAKNTVYLQMNSLKPEDTAVYYCAAVTRRYVLSTFYYWGQGTQVTVSS | high polyreactivity
QVQLVESGGGLVQAGGSLRLSCAASGRTFAWYAMGWYRQAPGKERELVAAITTRGSGTYYADSVKGRFTISRDNAKNTVYLQMNSLKPEDTAVYYCAKDPITATTLDERVFYWGQGTQVTVSS | low polyreactivity
QVQLVDSGGGLVQEGGSLRLSCAASGSIFSTYARGWYRQAPGKEWEVVAAITRGGRTTYADSVKGRFTISRDNAKNTVYLQMNSLKPEDTAVYYCNAVGVYYWWYRLYDYWGQGTQVTLSS | high polyreactivity
QVQLVESGGGLVQAGGSLRLSCAASGSTLVTYAMAWYRQAPGKERELVAAISGGTGTDYADSVKGRFTISRDNAKNTVYLQMNSLKPEDTAVYYCAAKSSSNKVDYYYWGQGSQVTVSS | low polyreactivity
QVQLVESGGGLVQAGGSLRLICAASGATFYFYAMGWYREAPGKERELVAAISKRGTSTYYADSVKWRFTISRDNAKNTVYLQLTSLKPEDTAVYFCAADAPRGYNYWGQGTQVTVSS | high polyreactivity
QVQLVESGGGLVQAGGSLRLSCAASVSTFTFNDMGWSRQAPGKERELVAAITSGGSTTYADSVKGRFTISRDNAKNTVYLQMNSLKPEDTAVYYCAADYVYFYFYGYASWGQGTQVTVSS | low polyreactivity
QVQLVESGGGLVQAGGSLRLSCAASGSTFSFYAMGWYRQAPGKERELVAAIDSGGRTKYADSVKGRFTISRDNAKNTVYLLMNSLKPEDTAVYYCAAVFRGWWLYDYWGQGTQVTVSS | low polyreactivity
QVQLVETGGGLVQAGGSLRLSCAASGRIFYYNAMGWYRQAPGKERELVAAITGSGGSTYYADSVKGRFTISRDNEMNTVYLQMNSLKPEDSAVYYCAAVNPYIRGRYDYWGQGTQVTVSS | high polyreactivity
QVQLVESGGGLVQAGGSLRLSCAASGRTFRYYAMGWYRQAPGKERELVAAITGSGGSTYYADSVKGRFTISRDNAKNTVYLQMNSLKPEDTAVYYCATRWALRWRGGYWGQGTQVTVSS | high polyreactivity
QVQLVESGGGLVQAGGSLRLSCAASGRTFGGYAMGWYRQAPGKERELVAAIRRSGGSTYYADSVKGRFTISRDNAKNTVYLQMNSLKPEDTAVYYCNVLRFSTGGYRYVYDYDYWGQGTQVTVSS | high polyreactivity
QVQLVESGGGLVQAGGSLRLSCAASGLTFGPYAMGWYRQAPGKERELVAAITSGGNTNYADSVKGRYTISRDNAKNTVYLQMNSLKPEETAVYYCATSYYLAYRSITPYDYWGQGTQVTVSS | low polyreactivity
QVQLVESGGGLVQAGGSLRLSCAASGIIFWYNAMGWYRQAPGKERELVASISTGGRTYYADSVKGRFTISRDNAKNTVYLQMNSLKPEDTAVYYCAAASRVGFLYCYWGQGTQVTVSS | low polyreactivity
QVHLVESGGGLVQAGGSLRLSCAASGSIFSVYTRGWYRQAPGKERELVAAISTGGGSTYYADSVKGRFTISRDNAKNTVYLQMNSLKPEDTAVYYCATDYGWAPSYWYDSCGQGTQVTVSS | low polyreactivity
QVQLVESGGGLIQPGGSLRLSCAASGSTFANNAMGWYRQAPGKESELVASISSDGSTNYADSVKGRFTISRDNAKNTVYLQMNSLKPEDTAVYYCAADWYYSADYFHFGYWGQGTQVTVSS | low polyreactivity
QVQLVESGGGLVQAGGSLRLSCAASGITFYINGMGWYRQAPGKEREFVAAIYDGVNTYYADSVKGRFTISRDNAKNTVYLQMNSLKPEDTAVYYCAADYPPARWEMEYWGQGTQVTVSS | low polyreactivity
QFQLVEAGGGLVQAGGSLRLSCAASGSIIPNYNMGWYRQAPAKETELVAAMSISGGTTYYADSVKGRFTISRDNAKNTVYLQMNSLKPEETAVYYCAAVEYYWFLGYYYRYDYWGQGTQVTVSS | high polyreactivity
QVQLVESVGGLVQAGGSLRLSCDASGRTFRVYAMGWYRQAPGKERELVAAITSGDSTYYADSVKGRFTISRDNAKNTFYLQMNSLKPEDTAVYYCAVNTSRYWSGYWGQGTQVTVSS | high polyreactivity
QVQLVESGGGLFQAGGSLRLSCAASGITFYYYTMGWYRQAPGKERELVAAISTRGGRTYYADSVKGRFTISRDNAKNTVYLQMNSLKPEDTAVYYCATYQSGVYASKRRLDYWGQGTQVTVSS | high polyreactivity
